Experimental findings from patent US12679878B2, “CRF2 receptor agonists and their use in therapy” (SANOFI, priority 2020, dated 2026) are described below.

The target in the assay is human corticotropin-releasing factor 2α (CRF2 α receptor) (human), Q13324. As to the kind of experiment: cell-based or functional assay.

Starred links: 1 amine or outer side, 2 acyl side, 3 side chain; linkers in the order of their positions; H or OH if unused. Non-standard residues stand in square brackets, D forms with d. Groups on a side chain read outwards from the residue. No end group written: not given here. *: point of attachment. C18 diacid = O=C(O)CCCCCCCCCCCCCCCCC(=O)*; γGlu = O=C(O)[C@H](CCC(=O)[*:2])N[*:1]; AEEA = NCCOCCOCC(=O)O; Aib = CC(C)(N)C(=O)O

Sequence of human corticotropin-releasing factor 2α (CRF2 α receptor) (human), Q13324 (Q13324 20-411): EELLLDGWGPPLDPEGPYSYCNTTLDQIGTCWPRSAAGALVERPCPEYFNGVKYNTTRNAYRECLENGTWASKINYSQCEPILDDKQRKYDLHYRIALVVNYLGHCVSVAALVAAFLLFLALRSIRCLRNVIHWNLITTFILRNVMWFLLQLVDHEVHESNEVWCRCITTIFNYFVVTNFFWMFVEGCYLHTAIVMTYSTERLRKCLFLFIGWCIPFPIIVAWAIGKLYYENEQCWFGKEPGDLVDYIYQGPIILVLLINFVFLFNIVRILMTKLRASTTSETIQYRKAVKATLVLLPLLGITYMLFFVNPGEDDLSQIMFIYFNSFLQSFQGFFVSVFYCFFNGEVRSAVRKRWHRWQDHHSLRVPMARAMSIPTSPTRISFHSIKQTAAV

B1: SEQ ID NO: 107 (peptide)
peptide: IVLSLDVPIKLK([AEEA-AEEA-γGlu-C18 diacid])QILLKQERQK[Aib]QREQAETNKQILERV-NH2
modifications: N-terminus assumed
SMILES: CC[C@H](C)[C@H](N)C(=O)N[C@H](C(=O)N[C@@H](CC(C)C)C(=O)N[C@@H](CO)C(=O)N[C@@H](CC(C)C)C(=O)N[C@@H](CC(=O)O)C(=O)N[C@H](C(=O)N1CCC[C@H]1C(=O)N[C@H](C(=O)N[C@@H](CCCCN)C(=O)N[C@@H](CC(C)C)C(=O)N[C@@H](CCCCNC(=O)COCCOCCNC(=O)COCCOCCNC(=O)CC[C@H](NC(=O)CCCCCCCCCCCCCCCCC(=O)O)C(=O)O)C(=O)N[C@@H](CCC(N)=O)C(=O)N[C@H](C(=O)N[C@@H](CC(C)C)C(=O)N[C@@H](CC(C)C)C(=O)N[C@@H](CCCCN)C(=O)N[C@@H](CCC(N)=O)C(=O)N[C@@H](CCC(=O)O)C(=O)N[C@@H](CCCNC(=N)N)C(=O)N[C@@H](CCC(N)=O)C(=O)N[C@@H](CCCCN)C(=O)NC(C)(C)C(=O)N[C@@H](CCC(N)=O)C(=O)N[C@@H](CCCNC(=N)N)C(=O)N[C@@H](CCC(=O)O)C(=O)N[C@@H](CCC(N)=O)C(=O)N[C@@H](C)C(=O)N[C@@H](CCC(=O)O)C(=O)N[C@H](C(=O)N[C@@H](CC(N)=O)C(=O)N[C@@H](CCCCN)C(=O)N[C@@H](CCC(N)=O)C(=O)N[C@H](C(=O)N[C@@H](CC(C)C)C(=O)N[C@@H](CCC(=O)O)C(=O)N[C@@H](CCCNC(=N)N)C(=O)N[C@H](C(N)=O)C(C)C)[C@@H](C)CC)[C@@H](C)O)[C@@H](C)CC)[C@@H](C)CC)C(C)C)C(C)C
The molecule B1 had an EC50 [nM], 0% HSA of 0.81 nM and an EC50 [nM], 0.1% HSA of 16.1 nM.

B2: SEQ ID NO: 110 (peptide)
peptide: IVLSLDVPIKLK([AEEA-AEEA-γGlu-C18 diacid])QILLKQERQK[Aib]QRQQAETNKQILAQV-NH2
modifications: N-terminus assumed
SMILES: CC[C@H](C)[C@H](N)C(=O)N[C@H](C(=O)N[C@@H](CC(C)C)C(=O)N[C@@H](CO)C(=O)N[C@@H](CC(C)C)C(=O)N[C@@H](CC(=O)O)C(=O)N[C@H](C(=O)N1CCC[C@H]1C(=O)N[C@H](C(=O)N[C@@H](CCCCN)C(=O)N[C@@H](CC(C)C)C(=O)N[C@@H](CCCCNC(=O)COCCOCCNC(=O)COCCOCCNC(=O)CC[C@H](NC(=O)CCCCCCCCCCCCCCCCC(=O)O)C(=O)O)C(=O)N[C@@H](CCC(N)=O)C(=O)N[C@H](C(=O)N[C@@H](CC(C)C)C(=O)N[C@@H](CC(C)C)C(=O)N[C@@H](CCCCN)C(=O)N[C@@H](CCC(N)=O)C(=O)N[C@@H](CCC(=O)O)C(=O)N[C@@H](CCCNC(=N)N)C(=O)N[C@@H](CCC(N)=O)C(=O)N[C@@H](CCCCN)C(=O)NC(C)(C)C(=O)N[C@@H](CCC(N)=O)C(=O)N[C@@H](CCCNC(=N)N)C(=O)N[C@@H](CCC(N)=O)C(=O)N[C@@H](CCC(N)=O)C(=O)N[C@@H](C)C(=O)N[C@@H](CCC(=O)O)C(=O)N[C@H](C(=O)N[C@@H](CC(N)=O)C(=O)N[C@@H](CCCCN)C(=O)N[C@@H](CCC(N)=O)C(=O)N[C@H](C(=O)N[C@@H](CC(C)C)C(=O)N[C@@H](C)C(=O)N[C@@H](CCC(N)=O)C(=O)N[C@H](C(N)=O)C(C)C)[C@@H](C)CC)[C@@H](C)O)[C@@H](C)CC)[C@@H](C)CC)C(C)C)C(C)C
B2: the EC50 [nM], 0% HSA is 0.18 nM.

B3: SEQ ID NO: 108 (peptide)
peptide: IVLSLDVPIKLK([AEEA-AEEA-γGlu-C18 diacid])QILLKQERQK[Aib]QRQKAETNKQILAQV-NH2
modifications: N-terminus assumed
SMILES: CC[C@H](C)[C@H](N)C(=O)N[C@H](C(=O)N[C@@H](CC(C)C)C(=O)N[C@@H](CO)C(=O)N[C@@H](CC(C)C)C(=O)N[C@@H](CC(=O)O)C(=O)N[C@H](C(=O)N1CCC[C@H]1C(=O)N[C@H](C(=O)N[C@@H](CCCCN)C(=O)N[C@@H](CC(C)C)C(=O)N[C@@H](CCCCNC(=O)COCCOCCNC(=O)COCCOCCNC(=O)CC[C@H](NC(=O)CCCCCCCCCCCCCCCCC(=O)O)C(=O)O)C(=O)N[C@@H](CCC(N)=O)C(=O)N[C@H](C(=O)N[C@@H](CC(C)C)C(=O)N[C@@H](CC(C)C)C(=O)N[C@@H](CCCCN)C(=O)N[C@@H](CCC(N)=O)C(=O)N[C@@H](CCC(=O)O)C(=O)N[C@@H](CCCNC(=N)N)C(=O)N[C@@H](CCC(N)=O)C(=O)N[C@@H](CCCCN)C(=O)NC(C)(C)C(=O)N[C@@H](CCC(N)=O)C(=O)N[C@@H](CCCNC(=N)N)C(=O)N[C@@H](CCC(N)=O)C(=O)N[C@@H](CCCCN)C(=O)N[C@@H](C)C(=O)N[C@@H](CCC(=O)O)C(=O)N[C@H](C(=O)N[C@@H](CC(N)=O)C(=O)N[C@@H](CCCCN)C(=O)N[C@@H](CCC(N)=O)C(=O)N[C@H](C(=O)N[C@@H](CC(C)C)C(=O)N[C@@H](C)C(=O)N[C@@H](CCC(N)=O)C(=O)N[C@H](C(N)=O)C(C)C)[C@@H](C)CC)[C@@H](C)O)[C@@H](C)CC)[C@@H](C)CC)C(C)C)C(C)C
As for B3, the EC50 [nM], 0% HSA came out at 0.23 nM.

B4: SEQ ID NO: 106 (peptide)
peptide: IVLSLDVPIKLK([AEEA-AEEA-γGlu-C18 diacid])QILLEQERQK[Aib]QREQAETNKQILERV-NH2
modifications: N-terminus assumed
SMILES: CC[C@H](C)[C@H](N)C(=O)N[C@H](C(=O)N[C@@H](CC(C)C)C(=O)N[C@@H](CO)C(=O)N[C@@H](CC(C)C)C(=O)N[C@@H](CC(=O)O)C(=O)N[C@H](C(=O)N1CCC[C@H]1C(=O)N[C@H](C(=O)N[C@@H](CCCCN)C(=O)N[C@@H](CC(C)C)C(=O)N[C@@H](CCCCNC(=O)COCCOCCNC(=O)COCCOCCNC(=O)CC[C@H](NC(=O)CCCCCCCCCCCCCCCCC(=O)O)C(=O)O)C(=O)N[C@@H](CCC(N)=O)C(=O)N[C@H](C(=O)N[C@@H](CC(C)C)C(=O)N[C@@H](CC(C)C)C(=O)N[C@@H](CCC(=O)O)C(=O)N[C@@H](CCC(N)=O)C(=O)N[C@@H](CCC(=O)O)C(=O)N[C@@H](CCCNC(=N)N)C(=O)N[C@@H](CCC(N)=O)C(=O)N[C@@H](CCCCN)C(=O)NC(C)(C)C(=O)N[C@@H](CCC(N)=O)C(=O)N[C@@H](CCCNC(=N)N)C(=O)N[C@@H](CCC(=O)O)C(=O)N[C@@H](CCC(N)=O)C(=O)N[C@@H](C)C(=O)N[C@@H](CCC(=O)O)C(=O)N[C@H](C(=O)N[C@@H](CC(N)=O)C(=O)N[C@@H](CCCCN)C(=O)N[C@@H](CCC(N)=O)C(=O)N[C@H](C(=O)N[C@@H](CC(C)C)C(=O)N[C@@H](CCC(=O)O)C(=O)N[C@@H](CCCNC(=N)N)C(=O)N[C@H](C(N)=O)C(C)C)[C@@H](C)CC)[C@@H](C)O)[C@@H](C)CC)[C@@H](C)CC)C(C)C)C(C)C
The molecule B4 showed an EC50 [nM], 0% HSA of 0.53 nM and an EC50 [nM], 0.1% HSA of 13.2 nM.

B5: SEQ ID NO: 112 (peptide)
peptide: IVLSLDVPIKLK([AEEA-AEEA-γGlu-C18 diacid])QILLKQERQKKQREKAETNKQILAQV-NH2
modifications: N-terminus assumed
SMILES: CC[C@H](C)[C@H](N)C(=O)N[C@H](C(=O)N[C@@H](CC(C)C)C(=O)N[C@@H](CO)C(=O)N[C@@H](CC(C)C)C(=O)N[C@@H](CC(=O)O)C(=O)N[C@H](C(=O)N1CCC[C@H]1C(=O)N[C@H](C(=O)N[C@@H](CCCCN)C(=O)N[C@@H](CC(C)C)C(=O)N[C@@H](CCCCNC(=O)COCCOCCNC(=O)COCCOCCNC(=O)CC[C@H](NC(=O)CCCCCCCCCCCCCCCCC(=O)O)C(=O)O)C(=O)N[C@@H](CCC(N)=O)C(=O)N[C@H](C(=O)N[C@@H](CC(C)C)C(=O)N[C@@H](CC(C)C)C(=O)N[C@@H](CCCCN)C(=O)N[C@@H](CCC(N)=O)C(=O)N[C@@H](CCC(=O)O)C(=O)N[C@@H](CCCNC(=N)N)C(=O)N[C@@H](CCC(N)=O)C(=O)N[C@@H](CCCCN)C(=O)N[C@@H](CCCCN)C(=O)N[C@@H](CCC(N)=O)C(=O)N[C@@H](CCCNC(=N)N)C(=O)N[C@@H](CCC(=O)O)C(=O)N[C@@H](CCCCN)C(=O)N[C@@H](C)C(=O)N[C@@H](CCC(=O)O)C(=O)N[C@H](C(=O)N[C@@H](CC(N)=O)C(=O)N[C@@H](CCCCN)C(=O)N[C@@H](CCC(N)=O)C(=O)N[C@H](C(=O)N[C@@H](CC(C)C)C(=O)N[C@@H](C)C(=O)N[C@@H](CCC(N)=O)C(=O)N[C@H](C(N)=O)C(C)C)[C@@H](C)CC)[C@@H](C)O)[C@@H](C)CC)[C@@H](C)CC)C(C)C)C(C)C
Molecule B5 showed an EC50 [nM], 0% HSA of 0.66 nM and an EC50 [nM], 0.1% HSA of 68.9 nM.

B6: SEQ ID NO: 109 (peptide)
peptide: IVLSLDVPIKLK([AEEA-AEEA-γGlu-C18 diacid])QILLKQERQK[Aib]QREKAETNKQILAQV-NH2
modifications: N-terminus assumed
SMILES: CC[C@H](C)[C@H](N)C(=O)N[C@H](C(=O)N[C@@H](CC(C)C)C(=O)N[C@@H](CO)C(=O)N[C@@H](CC(C)C)C(=O)N[C@@H](CC(=O)O)C(=O)N[C@H](C(=O)N1CCC[C@H]1C(=O)N[C@H](C(=O)N[C@@H](CCCCN)C(=O)N[C@@H](CC(C)C)C(=O)N[C@@H](CCCCNC(=O)COCCOCCNC(=O)COCCOCCNC(=O)CC[C@H](NC(=O)CCCCCCCCCCCCCCCCC(=O)O)C(=O)O)C(=O)N[C@@H](CCC(N)=O)C(=O)N[C@H](C(=O)N[C@@H](CC(C)C)C(=O)N[C@@H](CC(C)C)C(=O)N[C@@H](CCCCN)C(=O)N[C@@H](CCC(N)=O)C(=O)N[C@@H](CCC(=O)O)C(=O)N[C@@H](CCCNC(=N)N)C(=O)N[C@@H](CCC(N)=O)C(=O)N[C@@H](CCCCN)C(=O)NC(C)(C)C(=O)N[C@@H](CCC(N)=O)C(=O)N[C@@H](CCCNC(=N)N)C(=O)N[C@@H](CCC(=O)O)C(=O)N[C@@H](CCCCN)C(=O)N[C@@H](C)C(=O)N[C@@H](CCC(=O)O)C(=O)N[C@H](C(=O)N[C@@H](CC(N)=O)C(=O)N[C@@H](CCCCN)C(=O)N[C@@H](CCC(N)=O)C(=O)N[C@H](C(=O)N[C@@H](CC(C)C)C(=O)N[C@@H](C)C(=O)N[C@@H](CCC(N)=O)C(=O)N[C@H](C(N)=O)C(C)C)[C@@H](C)CC)[C@@H](C)O)[C@@H](C)CC)[C@@H](C)CC)C(C)C)C(C)C
As to B6, the EC50 [nM], 0% HSA came out at 0.95 nM.
